Assay results from publication PMC9482650, “Quantitative fragmentomics allow affinity mapping of interactomes” (Nature Communications, 2022).

Columns and labels:
Test in all cases: holdup assay
Design in all cases: key: below the threshold = too weak to quantify, mostly under pKd 3.1 to 4
[1] = target: Q70Z35; conditions: plain residues with an end cap or a label only (N-terminal biotin on a linker: ttds)
[2] = target: Q96SB3; conditions: plain residues with an end cap or a label only (N-terminal biotin on a linker: ttds)
[3] = target: Q96FS4; conditions: plain residues with an end cap or a label only (N-terminal biotin on a linker: ttds)
[4] = target: Q9UDY2; conditions: plain residues with an end cap or a label only (N-terminal biotin on a linker: ttds)
[5] = target: Q9NPB6; conditions: plain residues with an end cap or a label only (N-terminal biotin on a linker: ttds)
[6] = target: O75970; conditions: plain residues with an end cap or a label only (N-terminal biotin on a linker: ttds)
[7] = target: Q8TEW0; conditions: plain residues with an end cap or a label only (N-terminal biotin on a linker: ttds)
[8] = target: Q96JY6; conditions: plain residues with an end cap or a label only (N-terminal biotin on a linker: ttds)
[9] = target: O15021; conditions: plain residues with an end cap or a label only (N-terminal biotin on a linker: ttds)
[10] = target: O00560; conditions: plain residues with an end cap or a label only (N-terminal biotin on a linker: ttds)
[11] = target: Q13009; conditions: plain residues with an end cap or a label only (N-terminal biotin on a linker: ttds)
[12] = target: O43166; conditions: plain residues with an end cap or a label only (N-terminal biotin on a linker: ttds)
[13] = target: Q9H190; conditions: plain residues with an end cap or a label only (N-terminal biotin on a linker: ttds)
[14] = target: Q9NR12; conditions: plain residues with an end cap or a label only (N-terminal biotin on a linker: ttds)
[15] = target: Q9UMS6; conditions: plain residues with an end cap or a label only (N-terminal biotin on a linker: ttds)
[16] = target: Q96HC4; conditions: plain residues with an end cap or a label only (N-terminal biotin on a linker: ttds)
[17] = target: Q8IUC4; conditions: plain residues with an end cap or a label only (N-terminal biotin on a linker: ttds)
[18] = target: Q9Y3R0; conditions: plain residues with an end cap or a label only (N-terminal biotin on a linker: ttds)
[19] = target: Q5TCQ9; conditions: plain residues with an end cap or a label only (N-terminal biotin on a linker: ttds)
[20] = target: Q9C0E4; conditions: plain residues with an end cap or a label only (N-terminal biotin on a linker: ttds)
[21] = target: Q12923; conditions: plain residues with an end cap or a label only (N-terminal biotin on a linker: ttds)
[22] = target: O00233; conditions: plain residues with an end cap or a label only (N-terminal biotin on a linker: ttds)
[23] = target: Q8TB45; conditions: plain residues with an end cap or a label only (N-terminal biotin on a linker: ttds)
[24] = target: Q96JB8; conditions: plain residues with an end cap or a label only (N-terminal biotin on a linker: ttds)
[25] = target: Q13368; conditions: plain residues with an end cap or a label only (N-terminal biotin on a linker: ttds)
[26] = target: Q6ZWJ1; conditions: plain residues with an end cap or a label only (N-terminal biotin on a linker: ttds)
[27] = target: Q9ULJ8; conditions: plain residues with an end cap or a label only (N-terminal biotin on a linker: ttds)
[28] = target: Q92614; conditions: plain residues with an end cap or a label only (N-terminal biotin on a linker: ttds)
[29] = target: T1, LNX2_1, Q8N448
T1 sequence (Q8N448 228-328, limits assumed, looked up): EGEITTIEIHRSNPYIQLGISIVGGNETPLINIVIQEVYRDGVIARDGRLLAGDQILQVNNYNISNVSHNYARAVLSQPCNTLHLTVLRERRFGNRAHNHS

[30] = target: LNX1_4, Q8TBB1
[31] = plain residues with an end cap or a label only (N-terminal biotin on a linker: none)
[32] = plain residues with an end cap or a label only (N-terminal biotin on a linker: ttds)

Sequence of LNX1_4, Q8TBB1 (Q8TBB1 631-726): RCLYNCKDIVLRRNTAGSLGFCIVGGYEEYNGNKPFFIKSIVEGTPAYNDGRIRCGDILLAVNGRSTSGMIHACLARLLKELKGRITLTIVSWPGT

For RHTTSTETAV [HPV30-E6, P36809], the pKd [1] was “below the threshold”, the pKd [2] was “below the threshold” and the pKd [3] was “below the threshold”. The pKd [4] was “below the threshold”, the pKd [5] was “below the threshold” and the pKd [6] was “below the threshold”. For the same binder, the pKd [7] was “below the threshold”, the pKd [8] was “below the threshold” and the pKd [9] was “below the threshold”. The pKd [10] was “below the threshold”, the pKd [11] was “below the threshold” and the pKd [12] was “below the threshold”. For the same binder, the pKd [13] was “below the threshold”, the pKd [14] was “below the threshold” and the pKd [15] was “below the threshold”. For the same binder, the pKd [16] was “below the threshold”, the pKd [17] was “below the threshold” and the pKd [18] was “below the threshold”. For the same binder, the pKd [19] was “below the threshold”, the pKd [20] was “below the threshold” and the pKd [21] was “below the threshold”. The pKd [22] was “below the threshold”, the pKd [23] was “below the threshold” and the pKd [24] was “below the threshold”. The pKd [25] was “below the threshold”, the pKd [26] was “below the threshold” and the pKd [27] was “below the threshold”. For the same binder, the pKd [28] was “below the threshold”.

For NLNSSRVPDLLV [SARS-CoV2-E, P0DTC4], the pKd [29, 31] was “below the threshold” and the pKd [30, 31] was “below the threshold”.

QRQARSETLV [HPV59-E6, Q81964] was tested, and the pKd [1] was “below the threshold”, the pKd [2] was “below the threshold” and the pKd [3] was “below the threshold”. The pKd [4] was “below the threshold”, the pKd [5] was “below the threshold” and the pKd [6] was “below the threshold”. The pKd [7] was “below the threshold”, the pKd [8] was “below the threshold” and the pKd [9] was “below the threshold”. For the same binder, the pKd [10] was “below the threshold”, the pKd [11] was “below the threshold” and the pKd [12] was “below the threshold”. For the same binder, the pKd [13] was “below the threshold”, the pKd [14] was “below the threshold” and the pKd [15] was “below the threshold”. For the same binder, the pKd [16] was “below the threshold”, the pKd [17] was “below the threshold” and the pKd [18] was “below the threshold”. For the same binder, the pKd [19] was “below the threshold”, the pKd [20] was “below the threshold” and the pKd [21] was “below the threshold”. The pKd [22] was “below the threshold”, the pKd [23] was “below the threshold” and the pKd [24] was “below the threshold”. For the same binder, the pKd [25] was “below the threshold”, the pKd [26] was “below the threshold” and the pKd [27] was “below the threshold”. For the same binder, the pKd [28] was “below the threshold”.

For RLPKIKETTV [FRMPD4, Q14CM0], the pKd [1] was “below the threshold”, the pKd [2] was “below the threshold” and the pKd [3] was “below the threshold”. For the same binder, the pKd [4] was “below the threshold”, the pKd [5] was “below the threshold” and the pKd [6] was “below the threshold”. For the same binder, the pKd [7] was “below the threshold”, the pKd [8] was “below the threshold” and the pKd [9] was “below the threshold”. The pKd [10] was “below the threshold”, the pKd [11] was “below the threshold” and the pKd [12] was “below the threshold”. The pKd [13] was “below the threshold”, the pKd [14] was “below the threshold” and the pKd [15] was “below the threshold”. The pKd [16] was “below the threshold”, the pKd [17] was “below the threshold” and the pKd [18] was “below the threshold”. For the same binder, the pKd [19] was “below the threshold”, the pKd [20] was “below the threshold” and the pKd [21] was “below the threshold”. For the same binder, the pKd [22] was “below the threshold”, the pKd [24] was “below the threshold” and the pKd [25] was “below the threshold”. The pKd [26] was “below the threshold”, the pKd [27] was “below the threshold” and the pKd [28] was “below the threshold”.

For SKPTRRETEV [HPV35-E6, P27228], the pKd [29, 32] was “below the threshold” and the pKd [30, 32] was 3.49.

For RPLPRKVSQL [DOCK4, Q8N1I0], the pKd [1] was “below the threshold”, the pKd [2] was “below the threshold” and the pKd [3] was “below the threshold”. The pKd [4] was “below the threshold”, the pKd [5] was “below the threshold” and the pKd [6] was “below the threshold”. For the same binder, the pKd [7] was “below the threshold”, the pKd [8] was “below the threshold” and the pKd [9] was “below the threshold”. For the same binder, the pKd [10] was “below the threshold”, the pKd [11] was “below the threshold” and the pKd [12] was “below the threshold”. For the same binder, the pKd [13] was “below the threshold”, the pKd [14] was “below the threshold” and the pKd [15] was “below the threshold”. The pKd [16] was “below the threshold”, the pKd [17] was “below the threshold” and the pKd [18] was “below the threshold”. The pKd [19] was “below the threshold”, the pKd [20] was “below the threshold” and the pKd [21] was “below the threshold”. For the same binder, the pKd [22] was “below the threshold”, the pKd [24] was “below the threshold” and the pKd [25] was “below the threshold”. The pKd [26] was “below the threshold”, the pKd [27] was “below the threshold” and the pKd [28] was “below the threshold”.

SSLQSLETSV [ATP2B4, P23634] was tested, and the pKd [1] was “below the threshold”, the pKd [2] was “below the threshold” and the pKd [3] was “below the threshold”. The pKd [4] was “below the threshold”, the pKd [5] was “below the threshold” and the pKd [6] was “below the threshold”. For the same binder, the pKd [7] was “below the threshold”, the pKd [8] was “below the threshold” and the pKd [9] was “below the threshold”. The pKd [10] was “below the threshold”, the pKd [11] was “below the threshold” and the pKd [12] was “below the threshold”. For the same binder, the pKd [13] was “below the threshold”, the pKd [14] was “below the threshold” and the pKd [15] was “below the threshold”. For the same binder, the pKd [16] was “below the threshold”, the pKd [17] was “below the threshold” and the pKd [18] was “below the threshold”. The pKd [19] was “below the threshold”, the pKd [20] was “below the threshold” and the pKd [21] was “below the threshold”. The pKd [22] was “below the threshold”, the pKd [23] was “below the threshold” and the pKd [24] was “below the threshold”. The pKd [25] was “below the threshold”, the pKd [26] was “below the threshold” and the pKd [27] was “below the threshold”. For the same binder, the pKd [28] was “below the threshold”.

RLQRRRETQV [HPV18-E6, P06463] was tested, and the pKd [29, 32] was “below the threshold” and the pKd [30, 32] was 4.03.
